# Data published in patent US9631002B2, “Methods and compositions for producing active vitamin K-dependent proteins” (The University of North Carolina at Chapel Hill, priority 2010, dated 2017).
# Residue numbers refer to the chain shown, from its start. Names may count otherwise. “Also recorded” adds a separate entry of the source.
# B1: hVKOR Synechococcus: human VKOR with residues 122-139 replaced by Synechococcus VKOR 120-137, SEQ ID NO:31 (protein)
# chain: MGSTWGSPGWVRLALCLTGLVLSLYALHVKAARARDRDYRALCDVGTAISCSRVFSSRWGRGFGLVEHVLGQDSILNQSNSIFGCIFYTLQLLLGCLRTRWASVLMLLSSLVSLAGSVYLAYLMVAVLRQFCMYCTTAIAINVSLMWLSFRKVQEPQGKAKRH
# modifications: Human VKOR with amino acids 122-139 substituted with amino acids 120-137 of Synechococcus sp. JA-2-3B′a(2-13) VKOR (RefSeq accession no. YP_478481)
# B2: hVKOR Roseiflexus: human VKOR with residues 122-139 replaced by Roseiflexus VKOR 300-317, SEQ ID NO:33 (protein)
# chain: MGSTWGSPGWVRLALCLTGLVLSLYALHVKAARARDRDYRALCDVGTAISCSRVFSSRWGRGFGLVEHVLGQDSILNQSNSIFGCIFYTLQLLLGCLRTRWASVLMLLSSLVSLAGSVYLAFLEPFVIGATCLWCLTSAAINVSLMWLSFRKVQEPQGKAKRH
# modifications: Human VKOR with amino acids 122-139 substituted with amino acids 300-317 of Roseiflexus sp. RS-1 VKOR (RefSeq accession no. YP_001274867)
# B3: Y139W: human VKOR with tyrosine 139 mutated to tryptophan (protein, UniProt Q9BQB6 1-163, looked up, variant Y139W)
# Vitamin K epoxide reductase …: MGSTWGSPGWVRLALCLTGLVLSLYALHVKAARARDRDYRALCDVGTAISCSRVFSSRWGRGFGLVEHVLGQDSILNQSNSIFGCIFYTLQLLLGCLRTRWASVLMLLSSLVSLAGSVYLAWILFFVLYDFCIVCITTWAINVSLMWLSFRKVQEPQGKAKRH
# B4: Y139W_IV133PY: human VKOR with residue 139 changed to W and IV at 133-134 changed to PY (protein, UniProt Q9BQB6 1-163, looked up, variant Y139W I133P V134Y)
# Vitamin K epoxide reductase …: B3 Vitamin K epoxide reductase … with I133P, V134Y
# B5: Platypus: duck-billed platypus VKOR, SEQ ID NO:16, lacks cysteines corresponding to 43 and 51 (protein, listed as Ornithorhynchus anatinus)
# chain: MGAWVPTRSARVVGPRALGSRVATAVQPSAVDPDTRHDRIPSLRWGRGFGLVEMVLGPDSSLNQPNSVFGLLFYSLQLLLGCSRAPWTSVVLALSSLLSLAGSLYLAWILFFVLHDFCFVCITTYAINVGLALLNYRRLKQAQGKVMKYCDESSPASSLLERRFYSGGGLRNGGSAASFPFPPATGH
# B6: 5C-Mut: VKOR-Y139F with C16A, C43A, C51A, C85A and C96A simultaneously (protein, UniProt Q9BQB6 1-163, looked up, variant Y139F C16A C43A C51A C85A C96A)
# Vitamin K epoxide reductase …: B3 Vitamin K epoxide reductase … with C16A, C43A, C51A, C85A, C96A, W139F
# B7: C43/51A: VKOR-Y139F with double mutation C43A and C51A (protein, UniProt Q9BQB6 1-163, looked up, variant Y139F C43A C51A)
# Vitamin K epoxide reductase …: B3 Vitamin K epoxide reductase … with C43A, C51A, W139F
# B8: C43-51-DEL: VKOR-Y139F with deletion of C43, C51 and the residues between them (protein, UniProt Q9BQB6 1-163, looked up, variant Y139F del43-51)
# Vitamin K epoxide reductase …: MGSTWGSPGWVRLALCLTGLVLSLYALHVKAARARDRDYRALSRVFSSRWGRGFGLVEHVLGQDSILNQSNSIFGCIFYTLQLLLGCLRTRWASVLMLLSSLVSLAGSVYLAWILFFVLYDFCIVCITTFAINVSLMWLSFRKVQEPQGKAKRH
# B9: VKORC1L1: the VKOR paralogue, four TMDs (protein, UniProt Q8N0U8 1-176, looked up)
# Vitamin K epoxide reductase …: MAAPVLLRVSVPRWERVARYAVCAAGILLSIYAYHVEREKERDPEHRALCDLGPWVKCSAALASRWGRGFGLLGSIFGKDGVLNQPNSVFGLIFYILQLLLGMTASAVAALILMTSSIMSVVGSLYLAYILYFVLKEFCIICIVTYVLNFLLLIINYKRLVYLNEAWKRQLQPKQD
# B10: VKOR-CM: human VKOR with R37G, R35G, R33G, K30L, G9R, S7R and G6R mutations, SEQ ID NO:35 (protein)
# chain: B3 Vitamin K epoxide reductase … with G6R, S7R, G9R, K30L, R33G, R35G, R37G, W139Y
# modifications: Human VKOR comprising an R37G mutation, an R35G mutation, an R33G mutation, a K30L mutation, a G9R mutation, an S7R mutation and a G6R mutation
# B11: V45N: human VKOR comprising a V45N substitution introducing an additional glycosylation site, SEQ ID NO:25 (protein)
# chain: B3 Vitamin K epoxide reductase … with V45N, C51A, W139Y
# modifications: Human VKOR with V45N mutation
# B12: Human VKOR with amino acids 44-50 substituted with amino acids DYKDDDDK (Flag tag): human VKOR cysteine loop 44-50 replaced with FLAG tag, SEQ ID NO:34 (protein)
# chain: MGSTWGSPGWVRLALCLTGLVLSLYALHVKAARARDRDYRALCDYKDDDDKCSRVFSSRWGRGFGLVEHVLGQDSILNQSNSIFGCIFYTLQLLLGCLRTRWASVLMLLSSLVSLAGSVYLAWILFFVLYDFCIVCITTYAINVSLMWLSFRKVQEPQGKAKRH
# modifications: Human VKOR with amino acids 44-50 substituted with amino acids DYKDDDDK (Flag tag)
# B13: Takifugu: Takifugu VKOR NP_001027838, SEQ ID NO:7, Y138F (protein)
# chain: MAIPTWERKVRIFLCVFGLLLSVYALHVELSRERNPDYRAMCDLGESVSCSKVFSSRWGRGFGLVQYFVDKDSPLNQPNSVLGIIFYTLQMCLGLSLSRKAALFLVFSSWVSVAGSLYLASILAFVLGDFCMVCVSTFLVNFVLLFTNLKRRRAIEGLKEKSG
# modifications: Takifugu rubripes
# B14: Xenopus tropicalis: Xenopus VKOR NP_001006928, SEQ ID NO:8, Y138F (protein)
# chain: MAVPGWERAVRLLLCGVGIALSVYAYHVETSRERDANYTALCDINPSISCSKVFTSRWGRGFGLVEQILGRQSFLNQPNSVFGILFYGLQVLLGFSGSVGAAAALLGTSLVSIAGSLYLAYILFYVLEDFCVICVTTFALNFCLLLLNLKRLASLRAPPKKQKNKRKKN
# modifications: Xenopus (Silurana) tropicalis
# B15: Amphioxus: Amphioxus VKOR, SEQ ID NO:11, Y144F (protein, listed as Branchiostoma floridae)
# chain: MAAGRSFRLPIWEILSRCMLCTAGLVLSGYAFYVETSKEADHSYTAMCDVSESVSCSKVFTSRFGRGFGLVEPILGADSPLNLPNSIFGLAFYIMQLCLGVVPGMSVSIVLLATSVLSCLGCVYLAYILYFILQDACIVCISTFVVNTFMLIVNIKRVLLQRKAILKKQQ
# B16: Trichoplax: Trichoplax VKOR XM_002107720.1, SEQ ID NO:15 (protein, listed as Trichoplax adhaerens)
# chain: B15 chain with F144Y, F149L, I152V, I165L
# Legend:
# [1] = system: FIXgla-PC carboxylation in HEK 293 cells; format: cell-based, human; conditions: 11 μM vitamin K or 5 μM KO, HEK293
# [2] = system: carboxylation of FIXgla-PC reporter protein in HEK293 cells (reduction of KO to vitamin K); experiment: Cell-based VKOR activity assay: recombinant VKOR/VKORH expressed in FIXgla-PC/HEK293 cells with KO and warfarin, carboxylated reporter by ELISA; set-up: species or system human; conditions: for ability of human VKOR with replaced residues 122-139 to use KO to carboxylate the reporter: 48 h, HEK293 (FIG. 11C); for amount of carboxylated reporter protein with mutated recombinant human VKOR: FIG. 12, compared to human VKOR Y139F; for Relative activity: Human Y139F: VKOR of the organism compared to human Y139F VKOR, cell-based carboxylation; for carboxylation of reporter protein by human VKOR cysteine mutants: Y139F background, 4 μM warfarin, HEK293 (FIG. 13); for activity in the in vivo assay: cysteine mutants of VKOR-Y139F, 4 μM warfarin (FIGS. 17A-B); for carboxylation activity of modified human VKOR: FIGS. 23, 33
molecule,measurement,setting,value
"CC(=CCC12OC1(C)C(=O)c1ccccc1C2=O)CCCC(C)CCCC(C)CCCC(C)C (centres unmarked) [KO, Vitamin K1 2,3-epoxide]",increase in secretion of carboxylated reporter protein compared to no additions,[1],approximately 25 fold
B1,ability of human VKOR with replaced residues 122-139 to use KO to carboxylate the reporter,"[2]; 5 μM KO, 2 μM warfarin",only the human VKOR substituted with the M. tuberculosis domain functions as a VKOR
B2,ability of human VKOR with replaced residues 122-139 to use KO to carboxylate the reporter,"[2]; 5 μM KO, 2 μM warfarin",only the human VKOR substituted with the M. tuberculosis domain functions as a VKOR
B3,amount of carboxylated reporter protein with mutated recombinant human VKOR,[2],further reduction
B4,amount of carboxylated reporter protein with mutated recombinant human VKOR,[2],does not restore activity
B5,ability to promote carboxylation of the reporter protein compared to recombinant human VKOR,"[2]; 5 μM KO, 2 μM warfarin, FIXgla-PC HEK293 (FIGS. 9, 10)",inactive
same,Relative activity: Human Y139F,[2],No
B6,carboxylation of reporter protein by human VKOR cysteine mutants,[2],indistinguishable from VKORY139F
same,activity in the in vivo assay,[2]; 5 μM KO,~40%
B7,carboxylation of reporter protein by human VKOR cysteine mutants,[2],restores normal (VKORY139F) activity
same,activity in the in vivo assay,[2]; 5 μM KO,~60%
B8,activity in the in vivo assay,[2]; 5 μM KO,~60%
B9,activity in cell-based in vivo activity assays,[2],active in the vitamin K cycle
B10,ability to carboxylate vitamin K dependent reporter protein relative to wild type / control VKOR,[2]; charge-mutated human VKOR (FIG. 32),approximately fourfold; also recorded: about four times more active
B11,carboxylation activity of modified human VKOR,[2],increased carboxylation activity
B12,carboxylation activity of modified human VKOR,[2],increased activity
B13,Relative activity: Human Y139F,[2],"Yes, greater"
B14,Relative activity: Human Y139F,[2],"Yes, greater"
B15,Relative activity: Human Y139F,[2],"Yes, greater"
B16,Relative activity: Human Y139F,[2],No
